Results published in patent US20230381334A1.
Non-standard residues stand in square brackets, D forms with d. No end group written: not given here.

Each binder was assayed against mouse anti V5 antibody (Thermo Scientific) (assay: ELISA: 1 ug/ml mouse anti V5 with increasing SADC, complexes captured on streptavidin via biotinylated SADC peptide, bound IgG detected with anti mouse IgG-HRP).
In the case of IPNPLLGLDGGSGDYKDDDDKGK[BiotinAca]GC (peptide, part only; not given: transferrin scaffold, part only, also: bound to transferrin scaffold, attachment site not given here) [SADC with transferrin scaffold carrying tagged V5 peptide …-(BiotinAca)GC], the EC50 is reported as 0.007 µg/mL.
For IPNPLLGLDGGSGDYKDDDDKGK[BiotinAca]GC (peptide, part only; not given: albumin scaffold, part only, also: bound to albumin scaffold, attachment site not given here) [SADC with albumin scaffold carrying tagged V5 peptide …-(BiotinAca)GC], the EC50 was 0.0279 µg/mL.
In the case of IPNPLLGLDGGSGDYKDDDDKGK[BiotinAca]GC (peptide, part only; not given: haptoglobin scaffold, part only, also: bound to haptoglobin scaffold, attachment site not given here) [SADC with haptoglobin scaffold carrying tagged V5 peptide …-(BiotinAca)GC], the EC50 is reported as 0.0555 µg/mL.
